In patent US20220306744A1 (CRESCENDO BIOLOGICS, published 2022):
Residue numbers refer to the chain shown, from its start.

B1: 1.2a (VHH)
VHH: EVQLVESGGGLVQPGRSLRLSCAASGFTFDDYAMHWVRQAPGKDLEWVSGISWNGGSMGYAASVKGRFTISRDNAKNSLYLQMNSLRAEDTALYYCVKDKGPGLIGSTADYYGLDVWGQGTTVTVSS
B2: 1.3a (VHH)
VHH: B1 VHH with V5L, D44G, L45R, G55S, A62D, G66D, Y112H
B3: 1.5a (VHH)
VHH: B1 VHH with D44G, A62D, G66D, S85R, Y112H
B4: 1.9a (VHH)
VHH: B1 VHH with L11C, L20I, D44G, L45R, A62E, T91S, L114M
B5: 1.4a (VHH)
VHH: B1 VHH with V5L, D30A, D44G, L45R, A62E, T91S, I105T, S107T, L114M
B6: 1.8a (VHH)
VHH: B1 VHH with D44G, G55S, A62D, G66D, Y112H
B7: 1.10a (VHH)
VHH: B1 VHH with D30A, D44G, L45R, A62E, T91S, I105T, S107T, L114M
B8: 1.70b (VHH)
VHH: QVQLVESGGGLVKPGGSLRLSCAASGFTFGDSSMTWMRQAPGKGLEWVSYISSGGAVKFYTDSVKGRFTISRDNAKNSLYLQMNSLRADDTAVYYCAREAPLRLGESPHDAFDISGQGTMVTVSS
B9: 1.84b (VHH)
VHH: B8 VHH with Q1E, G30S, S32E, A56G, D89E
B10: 1.115b (VHH)
VHH: B8 VHH with Q1E, G30S, S32E, M34G, A56G, T61A, D89E
B11: 1.76b (VHH)
VHH: B8 VHH with Q1E, G30S, M37I, A56G, T61A
B12: 1.105b (VHH)
VHH: B8 VHH with Q1E, G30S, S32E, M34L, A56G, D89E
B13: 1.75b (VHH)
VHH: B8 VHH with Q1E, G30S, M37I, A56G, D89E
B14: 1.89b (VHH)
VHH: B8 VHH with Q1E, G30S, S32Y, A56G, T61A, D89E
B15: 1.95b (VHH)
VHH: B8 VHH with Q1E, G30S, S32G, A56G, T61A, D89E
B16: 1.94b (VHH)
VHH: B8 VHH with Q1E, G30S, S32W, A56G, T61A, D89E
B17: 1.87b (VHH)
VHH: B8 VHH with Q1E, G30S, S32K, A56G, D89E
B18: 1.97b (VHH)
VHH: B8 VHH with Q1E, G30S, S32I, A56G, T61A, D89E
B19: 1.112b (VHH)
VHH: B8 VHH with Q1E, G30S, S32E, M34I, A56G, T61A, D89E
B20: 1.110b (VHH)
VHH: B8 VHH with Q1E, G30S, S32E, M34N, A56G, T61A, D89E
B21: 1.93b (VHH)
VHH: B8 VHH with Q1E, G30S, S32A, A56G, T61A, D89E
B22: 1.111b (VHH)
VHH: B8 VHH with Q1E, G30S, S32E, M34W, A56G, T61A, D89E
B23: 1.81b (VHH)
VHH: B8 VHH with Q1E, G30S, M37V, A56G, T61A, D89E
B24: 1.114b (VHH)
VHH: B8 VHH with Q1E, G30S, S32E, M34H, A56G, T61A, D89E
B25: 1.71b (VHH)
VHH: B8 VHH with D31G, A56G
B26: 1.98b (VHH)
VHH: B8 VHH with Q1E, G30S, S32K, A56G, T61A, D89E
B27: 1.73b (VHH)
VHH: B8 VHH with S25T, G30S, S53A, A56G, K58R
B28: 1.74b (VHH)
VHH: B8 VHH with Q1E, G30S, M37I, A56G
B29: 1.92b (VHH)
VHH: B8 VHH with Q1E, G30S, S32E, A56G, T61A, D89E
notes: also called Humabody 1.92b
B30: 1.88b (VHH)
VHH: B8 VHH with Q1E, G30S, S32R, A56G, D89E
B31: 1.90b (VHH)
VHH: B8 VHH with Q1E, G30S, S32V, A56G, T61A, D89E
B32: 1.102b (VHH)
VHH: B8 VHH with Q1E, G30S, S32E, M34V, A56G, D89E
B33: 1.79b (VHH)
VHH: B8 VHH with Q1E, G30S, M37K, A56G, T61A, D89E
B34: 1.83b (VHH)
VHH: B8 VHH with Q1E, G30S, S32E, M37F, A56G, D89E
B35: 1.104b (VHH)
VHH: B8 VHH with Q1E, G30S, S32E, M34F, A56G, D89E
B36: 1.86b (VHH)
VHH: B8 VHH with Q1E, G30S, S32A, A56G, D89E
B37: 1.82b (VHH)
VHH: B8 VHH with Q1E, G30S, S32T, A56G, D89E
B38: 1.99b (VHH)
VHH: B8 VHH with Q1E, G30S, S32R, A56G, T61A, D89E
B39: 1.78b (VHH)
VHH: B8 VHH with Q1E, G30S, M37I, A56G, T61A, D89E
B40: 1.106b (VHH)
VHH: B8 VHH with Q1E, G30S, S32E, M34K, A56G, D89E
B41: 1.107b (VHH)
VHH: B8 VHH with Q1E, G30S, S32E, M34Y, A56G, D89E
B42: 1.108b (VHH)
VHH: B8 VHH with Q1E, G30S, S32E, M34A, A56G, T61A, D89E
B43: 1.85b (VHH)
VHH: B8 VHH with Q1E, G30S, S32Y, A56G, D89E
B44: 1.100b (VHH)
VHH: B8 VHH with Q1E, G30S, S32L, A56G, T61A, D89E
B45: 1.96b (VHH)
VHH: B8 VHH with Q1E, G30S, S32T, A56G, T61A, D89E
B46: 1.91b (VHH)
VHH: B8 VHH with Q1E, G30S, S32Q, A56G, T61A, D89E
B47: 1.77b (VHH)
VHH: B8 VHH with Q1E, G30S, A56G, D89E
notes: also called Humabody 1.77b
B48: 1.113b (VHH)
VHH: B8 VHH with Q1E, G30S, S32E, M34S, A56G, T61A, D89E
B49: 1.72b (VHH)
VHH: B8 VHH with G30S, T35S, A56G, K58I, T61A
B50: 1.80b (VHH)
VHH: B8 VHH with Q1E, G30S, A56G, T61A, D89E
B51: 1.103b (VHH)
VHH: B8 VHH with Q1E, G30S, S32E, M34Q, A56G, D89E
B52: 1.101b (VHH)
VHH: B8 VHH with Q1E, G30S, S32F, A56G, T61A, D89E
B53: 1.109b (VHH)
VHH: B8 VHH with Q1E, G30S, S32E, M34F, A56G, T61A, D89E

biological target: T1, human PD-1 expressed on cells (CHO TREX human PD1 cell line, full-length human PD-1 sequence) (human, UniProt Q15116 21-288); assay: worded summary of the screens
T1 construct: Also used for human PD-1 on Jurkat reporter cells, on PathHunter cells and on PHA-stimulated human CD4+ T cells; also called CHO human PD1 cells; CHO human PD-1 cells
T1 sequence (Q15116 21-288): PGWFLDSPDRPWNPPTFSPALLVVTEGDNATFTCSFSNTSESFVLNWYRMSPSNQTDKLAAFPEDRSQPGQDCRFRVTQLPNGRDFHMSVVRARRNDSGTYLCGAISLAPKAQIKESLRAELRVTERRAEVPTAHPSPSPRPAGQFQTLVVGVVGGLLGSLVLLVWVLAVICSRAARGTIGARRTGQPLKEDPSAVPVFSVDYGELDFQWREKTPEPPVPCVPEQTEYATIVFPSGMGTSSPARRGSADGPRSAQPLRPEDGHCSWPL

Binding result, binds:
B1
B2
B3
B4
B5
B6
B7
B8
B9
B10
B11
B12
B13
B14
B15
B16
B17
B18
B19
B20
B21
B22
B23
B24
B25
B26
B27
B28
B29
B30
B31
B32
B33
B34
B35
B36
B37
B38
B39
B40
B41
B42
B43
B44
B45
B46
B47
B48
B49
B50
B51
B52
B53
